Source: the supplement of paper PMC11780869

Test system: Bacillus subtilis
Assay: cleaved RNA product abundance (RNA/gDNA barcode ratio) relative to median wild-type variant (ratio to wild type); higher = more accumulation of the downstream cleavage product
Details: cleavage site: cggR-gapA (positions -7 to +36 mutated)
Procedure, shortened: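 Reporter mRNAs based on truncated aprE or tetM carried barcoded, mutagenized RNase Y cleavage-site windows built from oligos with a 9% error rate and were integrated into the B. subtilis chromosome. Cultures grew in LB at 37°C from OD600 0.0003 to 0.3. Cleaved RNA was gel-selected, reverse transcribed and barcode-sequenced together with genomic DNA barcodes, and UMIs were collapsed. Cleaved product abundance is the per-construct ratio of RNA to gDNA barcodes, scaled to the median of constructs carrying the unmutated site.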

[1] = experiment (reporter, strain, medium): exp 2b: truncated aprE reporter, strain BJT200
[2] = experiment (reporter, strain, medium): exp 4a: truncated aprE reporter, strain BJT201 with 2% xylose (RNase J1 expressed)
[3] = experiment (reporter, strain, medium): exp 6: tetM reporter, strain 168

| Sequence | cleaved RNA product abundance [1] | cleaved RNA product abundance [2] | cleaved RNA product abundance [3] |
| --- | --- | --- | --- |
| ACAGACGAAGGAGCCGCAAAGAAGTTATTAAGGGATGAATAATCCCTCAATATAAATATATCTCACTTATTTAAA | 0.976 | 1.02 |  |
| ACAGACGAAGGAGCCGCAAAGAAGTTATTAAGGGATGAATAATCCCTCAATATAAATATCACTCACTTATTTAAA |  | 0.917 |  |
| ACAGACGAAGGAGCCGCAAAGAAGTTATTAAGGGATGAATAATCCCTCAATATAAATATCTCTACTTATTTAAAG | 1.09 |  |  |
| ACAGACGAAGGAGCCGCAAAGAAGTTATTAAGGGATGAATAATCCCTCAATATAAATATCTCTCACTATTTAAAG | 1.28 | 1.23 |  |
| ACAGACGAAGGAGCCGCAAAGAAGTTATTAAGGGATGAATAATCCCTCAATATAAATATCTCTCACTTATTAAAG | 0.94 | 0.971 |  |
| ACAGACGAAGGAGCCGCAAAGAAGTTATTAAGGGATGAATAATCCCTCAATATAAATATCTCTCACTTATTTAAA |  |  | 1.06 |
| ACAGACGAAGGAGCCGCAAAGAAGTTATTAAGGGATGAATAATCCCTCAATATAAATATCTCTCACTTATTTAAG | 0.868 | 0.646 |  |
| ACAGACGAAGGAGCCGCAAAGAAGTTATTAAGGGATGAATAATCCCTCAATATAAATATCTCTCACTTTTTAAAG |  | 0.879 |  |
| ACAGACGAAGGAGCCGCAAAGAAGTTATTAAGGGATGAATAATCCCTCAATATAAATATCTCTCATTATTTAAAG | 1.06 | 1.05 |  |
| ACAGACGAAGGAGCCGCAAAGAAGTTATTAAGGGATGAATAATCCCTCAATATAAATATCTCTCCTTATTTAAAG | 0.315 |  |  |
| ACAGACGAAGGAGCCGCAAAGAAGTTATTAAGGGATGAATAATCCCTCAATATAAATATCTCTCGCTTATTTAAA |  | 0.778 |  |
| ACAGACGAAGGAGCCGCAAAGAAGTTATTAAGGGATGAATAATCCCTCAATATAAATATGACTCACTTATTTAAA |  | 1 |  |
| ACAGACGAAGGAGCCGCAAAGAAGTTATTAAGGGATGAATAATCCCTCAATATAAATATGTCTCACTTATTTAAA |  | 0.713 |  |
| ACAGACGAAGGAGCCGCAAAGAAGTTATTAAGGGATGAATAATCCCTCAATATAAATATTTCTCACTTATTTAAA | 1 | 0.864 |  |
| ACAGACGAAGGAGCCGCAAAGAAGTTATTAAGGGATGAATAATCCCTCAATATAAATCTCTCTCACTTATTTAAA | 0.652 | 0.679 | 0.701 |
| ACAGACGAAGGAGCCGCAAAGAAGTTATTAAGGGATGAATAATCCCTCAATATAAATGACTCTCACTTATTTAAA |  | 1.3 |  |
| ACAGACGAAGGAGCCGCAAAGAAGTTATTAAGGGATGAATAATCCCTCAATATAAATGTCTCTCACTTATTTAAA | 0.498 | 0.636 | 0.546 |
| ACAGACGAAGGAGCCGCAAAGAAGTTATTAAGGGATGAATAATCCCTCAATATAAATGTTTCTCACTTATTTAAA |  | 0.369 |  |
| ACAGACGAAGGAGCCGCAAAGAAGTTATTAAGGGATGAATAATCCCTCAATATAAATTACTCTCACTTATTTAAA |  | 0.951 |  |
| ACAGACGAAGGAGCCGCAAAGAAGTTATTAAGGGATGAATAATCCCTCAATATAAATTATCTCTCACTTATTTAA |  | 0.975 |  |
| ACAGACGAAGGAGCCGCAAAGAAGTTATTAAGGGATGAATAATCCCTCAATATAAATTTCTCTCACTTATTTAAA | 0.72 | 0.761 | 0.391 |

| Sequence | cleaved RNA product abundance [1] | cleaved RNA product abundance [2] | cleaved RNA product abundance [3] |
| --- | --- | --- | --- |
| ACAGACGAAGGAGCCGCAAAGAAGTTATTAAGGGATGAATAATCCCTCAATATAAATTTGTCTCACTTATTTAAA | 0.98 |  |  |
| ACAGACGAAGGAGCCGCAAAGAAGTTATTAAGGGATGAATAATCCCTCAATATAACCATCTCTCACTTATTTAAA |  | 0.296 |  |
| ACAGACGAAGGAGCCGCAAAGAAGTTATTAAGGGATGAATAATCCCTCAATATAACTATCTCTCACTTATTTAAA | 0.201 | 0.146 | 0.267 |
| ACAGACGAAGGAGCCGCAAAGAAGTTATTAAGGGATGAATAATCCCTCAATATAAGTATCTCTCACTTATTTAAA | 0.397 | 0.42 | 0.462 |
| ACAGACGAAGGAGCCGCAAAGAAGTTATTAAGGGATGAATAATCCCTCAATATAATGATCTCTCACTTATTTAAA |  | 0.348 |  |
| ACAGACGAAGGAGCCGCAAAGAAGTTATTAAGGGATGAATAATCCCTCAATATAATTACCTCTCACTTATTTAAA |  | 0.435 |  |
| ACAGACGAAGGAGCCGCAAAGAAGTTATTAAGGGATGAATAATCCCTCAATATAATTATCTCTCACTTATTTAAA | 0.673 | 0.491 | 0.338 |
| ACAGACGAAGGAGCCGCAAAGAAGTTATTAAGGGATGAATAATCCCTCAATATACATATCTCTCACTTATTTAAA | 0.933 | 0.838 | 0.498 |
| ACAGACGAAGGAGCCGCAAAGAAGTTATTAAGGGATGAATAATCCCTCAATATACATCTCTCTCACTTATTTAAA |  | 0.206 |  |
| ACAGACGAAGGAGCCGCAAAGAAGTTATTAAGGGATGAATAATCCCTCAATATAGATATCTCTCACTTATTTAAA | 0.711 | 0.683 |  |
| ACAGACGAAGGAGCCGCAAAGAAGTTATTAAGGGATGAATAATCCCTCAATATATAAATCTCTCACTTATTTAAA |  | 1.13 |  |
| ACAGACGAAGGAGCCGCAAAGAAGTTATTAAGGGATGAATAATCCCTCAATATATAGATCTCTCACTTATTTAAA |  | 0.77 |  |
| ACAGACGAAGGAGCCGCAAAGAAGTTATTAAGGGATGAATAATCCCTCAATATATATAACTCTCACTTATTTAAA | 0.679 | 0.429 |  |
| ACAGACGAAGGAGCCGCAAAGAAGTTATTAAGGGATGAATAATCCCTCAATATATATATCTCTCACTTATTTAAA | 0.874 | 0.885 | 0.832 |
| ACAGACGAAGGAGCCGCAAAGAAGTTATTAAGGGATGAATAATCCCTCAATATATATATTTCTCACTTATTTAAA |  | 0.817 |  |
| ACAGACGAAGGAGCCGCAAAGAAGTTATTAAGGGATGAATAATCCCTCAATATATATTTCTCTCACTTATTTAAA |  | 0.561 |  |
| ACAGACGAAGGAGCCGCAAAGAAGTTATTAAGGGATGAATAATCCCTCAATATCAATATCTCTCACTTATTTAAA | 0.126 | 0.103 | 0.216 |
| ACAGACGAAGGAGCCGCAAAGAAGTTATTAAGGGATGAATAATCCCTCAATATGAATATCTCTCACTTATTTAAA | 0.153 | 0.102 | 0.0685 |
| ACAGACGAAGGAGCCGCAAAGAAGTTATTAAGGGATGAATAATCCCTCAATATTAATATCTCTCACTTATTTAAA | 0.169 | 0.113 | 0.249 |
| ACAGACGAAGGAGCCGCAAAGAAGTTATTAAGGGATGAATAATCCCTCAATCTAAATATCTCTCACTTATTTAAA | 0.126 | 0.138 | 0.193 |
| ACAGACGAAGGAGCCGCAAAGAAGTTATTAAGGGATGAATAATCCCTCAATGTAAATATCTCTCACTTATTTAAA | 0.139 | 0.13 | 0.154 |
